The source of these data is publication PMC3896397.

What is called Kd is a measure of binding affinity in units of concentration.

For the test, the target named is Recombinant Human VEGF-A165 (human). In words: ELISA; VEGF 165 (0.5 ug) on 96-well plates; serial dilutions (0.05 to 10 uM) of Flag-tagged HSPB1 wild type or C-terminal HSPB1 in PBS plus 1% BSA, 37°C, 2 hours; detected with anti-flag monoclonal antibody; Kd by Scatchard analysis. A general note: In an ELISA, binding on a coated surface is turned into a signal by an enzyme label.

On to “Flag-tagged secretory wild-type HSPB1 (from UniProt P04792 1-205) (natural protein)”, for which the Kd was found to be 10.8 µM. With “C-terminal HSPB1 fragment, secretory HSPB1 (59-203) (from UniProt P04792 59-203) (domain or fragment)” the figure was 0.78 µM.
